Patent US20140322717

System: TspRI (Thermus sp.?)
Test: cleavage_in_vitro
Conditions: destruction of wild type PCR product during qPCR, 85 C denaturation

Sequence “AGACATACTTATTGACTCTAAGAGGAAAGATGAAGTACTATGTTTTAAAGAATATTATATTACAGAATTATAGAAATTAGATCTCTTACCTAAACTCTTCATAAAGCTTGCTCTGATAGGAAAATGAGATCTACTGTTTTCCTTTACTTACTACACCTCAGATATATTTCTTCATGAAGACCTCACAGTAAAAATAGGTGATTTTGGTCTAGCTACAGTGAAATCTCGATGGAGTGAGTCCCATCAGTTTGAACAGTTGTCTGGATCCATTTTGTGGATGGTAAGAATTGAGGCTATTTTTCCACTGATTAAATTTTTGGCCCTGAGATGCTGCTGAGTTACTAGAAAGTCATTGAAGGTCTCAACTATAGTATTTTCATAGTTCCCAGT (double strand) [B-raf synthetic wild type template]” has an activity of over 99%.
